Results reported in patent publication US20140178854A1.

Assays:
[1] = biological target: gp70 env protein of amphotropic MLV (4070A envelope), on purified viral particles (amphotropic murine leukemia virus (4070A envelope)); test: ELISA on plate-bound MLV, dilution factor 10, Exp125-Ana Plate 2
[2] = biological target: gp70 env protein of amphotropic MLV (4070A envelope), on purified viral particles (amphotropic murine leukemia virus (4070A envelope)); test: ELISA on plate-bound MLV, dilution factor 50, Exp073-DTV Plate 2
[3] = biological target: gp70 env protein of amphotropic MLV (4070A envelope), on purified viral particles (amphotropic murine leukemia virus (4070A envelope)); test: ELISA on plate-bound MLV, dilution factor 50, Exp074-DTV Plate 2
[4] = biological target: gp70 env protein of amphotropic MLV (4070A envelope), on purified viral particles (amphotropic murine leukemia virus (4070A envelope)); test: ELISA on plate-bound MLV, dilution factor 50, Exp121-Ana Plate 1
[5] = biological target: gp70 env protein of amphotropic MLV (4070A envelope), on purified viral particles (amphotropic murine leukemia virus (4070A envelope)); test: ELISA on plate-bound MLV, dilution factor 50, Exp121-Ana Plate 2
[6] = biological target: gp70 env protein of amphotropic MLV (4070A envelope), on purified viral particles (amphotropic murine leukemia virus (4070A envelope)); test: ELISA on plate-bound MLV, dilution factor 50, Exp122-Ana Plate 1
[7] = biological target: gp70 env protein of amphotropic MLV (4070A envelope), on purified viral particles (amphotropic murine leukemia virus (4070A envelope)); test: ELISA on plate-bound MLV, dilution factor 250, Exp125-Ana Plate 1
[8] = biological target: gp70 env protein of amphotropic MLV (4070A envelope), on purified viral particles (amphotropic murine leukemia virus (4070A envelope)); test: ELISA on plate-bound MLV, dilution factor 250, Exp125-Ana Plate 2
[9] = biological target: gp70 env protein of amphotropic MLV (4070A envelope), on purified viral particles (amphotropic murine leukemia virus (4070A envelope)); test: ELISA on plate-bound MLV, dilution factor 1250, Exp074-DTV Plate 1
[10] = biological target: gp70 env protein of amphotropic MLV (4070A envelope), on purified viral particles (amphotropic murine leukemia virus (4070A envelope)); test: ELISA on plate-bound MLV, dilution factor 1250, Exp074-DTV Plate 2
[11] = biological target: gp70 env protein of amphotropic MLV (4070A envelope), on purified viral particles (amphotropic murine leukemia virus (4070A envelope)); test: ELISA on plate-bound MLV, dilution factor 1250, Exp122-Ana Plate 1
[12] = biological target: gp70 env protein of amphotropic MLV (4070A envelope), on purified viral particles (amphotropic murine leukemia virus (4070A envelope)); test: ELISA on plate-bound MLV, dilution factor 6250, Exp072-DTV Plate 2
[13] = biological target: gp70 env protein of amphotropic MLV (4070A envelope), on purified viral particles (amphotropic murine leukemia virus (4070A envelope)); test: ELISA on plate-bound MLV, dilution factor 6250, Exp073-DTV Plate 1
[14] = biological target: gp70 env protein of amphotropic MLV (4070A envelope), on purified viral particles (amphotropic murine leukemia virus (4070A envelope)); test: ELISA on plate-bound MLV, dilution factor 6250, Exp073-DTV Plate 2
[15] = biological target: gp70 env protein of amphotropic MLV (4070A envelope), on purified viral particles (amphotropic murine leukemia virus (4070A envelope)); test: ELISA on plate-bound MLV, dilution factor 6250, Exp121-Ana Plate 1
[16] = biological target: gp70 env protein of amphotropic MLV (4070A envelope), on purified viral particles (amphotropic murine leukemia virus (4070A envelope)); test: ELISA on plate-bound MLV, dilution factor 6250, Exp125-Ana Plate 1
[17] = biological target: gp70 env protein of amphotropic MLV (4070A envelope), on purified viral particles (amphotropic murine leukemia virus (4070A envelope)); test: ELISA on plate-bound MLV, dilution factor 31250, Exp072-DTV Plate 1
[18] = biological target: gp70 env protein of amphotropic MLV (4070A envelope), on purified viral particles (amphotropic murine leukemia virus (4070A envelope)); test: ELISA on plate-bound MLV, dilution factor 31250, Exp073-DTV Plate 2
[19] = biological target: gp70 env protein of amphotropic MLV (4070A envelope), on purified viral particles (amphotropic murine leukemia virus (4070A envelope)); test: ELISA on plate-bound MLV, dilution factor 31250, Exp074-DTV Plate 1
[20] = biological target: gp70 env protein of amphotropic MLV (4070A envelope), on purified viral particles (amphotropic murine leukemia virus (4070A envelope)); test: ELISA on plate-bound MLV, dilution factor 156250, Exp121-Ana Plate 2
[21] = biological target: gp70 env protein of amphotropic MLV (4070A envelope), on purified viral particles (amphotropic murine leukemia virus (4070A envelope)); test: ELISA on plate-bound MLV, dilution factor 156250, Exp122-Ana Plate 2
[22] = biological target: gp70 env protein of amphotropic MLV (4070A envelope), on purified viral particles (amphotropic murine leukemia virus (4070A envelope)); test: ELISA on plate-bound MLV, dilution factor 781250, Exp072-DTV Plate 2
[23] = biological target: gp70 env protein of amphotropic MLV (4070A envelope), on purified viral particles (amphotropic murine leukemia virus (4070A envelope)); test: ELISA on plate-bound MLV, dilution factor 781250, Exp121-Ana Plate 1
[24] = biological target: gp70 env protein of amphotropic MLV (4070A envelope), on purified viral particles (amphotropic murine leukemia virus (4070A envelope)); test: ELISA on plate-bound MLV, dilution factor 10, inter-assay mean of six experiments
[25] = biological target: gp70 env protein of amphotropic MLV (4070A envelope), on purified viral particles (amphotropic murine leukemia virus (4070A envelope)); test: ELISA on plate-bound MLV, dilution factor 31250, inter-assay mean of six experiments
[26] = biological target: gp70 env protein of amphotropic MLV (4070A envelope), on purified viral particles (amphotropic murine leukemia virus (4070A envelope)); test: ELISA on plate-bound MLV, dilution factor 156250, inter-assay mean of six experiments

Chain of gp70 env protein of amphotropic MLV (4070A envelope), on purified viral particles (amphotropic murine leukemia virus (4070A envelope)) (P21995 whole entry): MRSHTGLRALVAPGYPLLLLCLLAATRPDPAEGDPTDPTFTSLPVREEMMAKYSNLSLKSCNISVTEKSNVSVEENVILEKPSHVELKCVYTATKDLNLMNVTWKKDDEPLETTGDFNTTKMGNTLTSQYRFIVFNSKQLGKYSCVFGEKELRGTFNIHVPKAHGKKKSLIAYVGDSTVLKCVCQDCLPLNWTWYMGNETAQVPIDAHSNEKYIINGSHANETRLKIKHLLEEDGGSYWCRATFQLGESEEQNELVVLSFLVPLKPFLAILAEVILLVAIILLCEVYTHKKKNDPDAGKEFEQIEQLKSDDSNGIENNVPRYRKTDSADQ

## 83A25 monoclonal antibody (rat IgG2a, anti-gp70)
[1]
  Mean OD: 2.27 OD
[2]
  Mean OD: 2.31 OD
[3]
  Mean OD: 2.14 OD
[4]
  Mean OD: 2.43 OD
[5]
  Mean OD: 2.46 OD
[6]
  Mean OD: 2.01 OD
[7]
  Mean OD: 1.85 OD
[8]
  Mean OD: 1.88 OD
[9]
  Mean OD: 1.45 OD
[10]
  Mean OD: 1.39 OD
[11]
  Mean OD: 1.48 OD
[12]
  Mean OD: 0.612 OD
[13]
  Mean OD: 0.803 OD
[14]
  Mean OD: 0.773 OD
[15]
  Mean OD: 0.903 OD
[16]
  Mean OD: 0.653 OD
[17]
  Mean OD: 0.202 OD
[18]
  Mean OD: 0.276 OD
[19]
  Mean OD: 0.253 OD
[20]
  Mean OD: 0.159 OD
[21]
  Mean OD: 0.174 OD
[22]
  Mean OD: 0.104 OD
[23]
  Mean OD: 0.137 OD
[24]
  Mean OD (inter-assay mean): 2.3 OD
[25]
  Mean OD (inter-assay mean): 0.259 OD
[26]
  Mean OD (inter-assay mean): 0.144 OD
